PMC4209899

System: Ifit1
Assay: filter binding
Conditions: 5' cap 0 (N-7 methylguanosine)

G3 VEEV TRD 5'-UTR RNA, cap 0
Kd: 91 nM
